Columns and labels:
[1] = test system: MDM2 C-terminal RING domain (GST fusion) (human); assay: ITC; settings: ITC: 10 mM Hepes pH 7.2, 150 mM NaCl, temperature not stated; fluorescence titration (ex 280 nm, em 335 nm): buffer and temperature not stated
[2] = test system: MDM2 C-terminal RING domain (GST fusion) (human); assay: intrinsic protein fluorescence titration; settings: ITC: 10 mM Hepes pH 7.2, 150 mM NaCl, temperature not stated; fluorescence titration (ex 280 nm, em 335 nm): buffer and temperature not stated

Substance: XIAP IRES RNA (small, RNP core binding site)
- Kd [1]: 700 nM
- Kd [2]: 680 nM

Reference: paper PMC4379586
